These results are taken from publication PMC12609076.

In experiment [1] the target is Bradyrhizobium japonicum SemiSWEET (Bradyrhizobium japonicum). The experiment can be described thus: not stated; BjSemiSWEET in detergent (fig. S8A); method not given.
Experiment [2] shares this target. The experiment is described as follows: not stated; BjSemiSWEET in liposomes (fig. S8B); method not given.

One may read the stoichiometry N as a count of units in the complex or per binding partner. With “Bradyrhizobium japonicum SemiSWEET (natural protein)”, the stoichiometry N in experiment [1] and in experiment [2] was 2 each time.
